This data set in a line: yeast display, Sf9 membrane polyspecificity reagent, FACS + sequencing; frameworks hold sequencing errors. In outline:
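Galactose-induced (36–48 hours) yeast carrying a synthetic nanobody display library were exposed to 10% biotinylated, detergent-solubilized Sf9 membrane reagent at 4 °C for 1 hour. FACS followed streptavidin microbead enrichment, using low and high (top ~1%) gates for expression (anti-HA) and reagent binding (streptavidin). Colony PCR, MiSeq 2 × 250 sequencing and CDR-length filtering followed. Labels for polyreactivity reflect the gate of origin.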
Regarding “QVLRVDSGGGLVQAGGSLRLSCAASGSIFGFYARGWDRQAPGTERELVAAITFSGGSTDYTDSVKGRFTISSDNAKNTVYLQMNSLKTEDTSVYYCADRGYAIYSYWYYEPYDYWGQGTQVTVSS”, the “polyreactivity (PSR sort gate)” value was “high polyreactivity”.

Regarding “QVQLVESGGGLVQAGGSLRLSCAASGLIFHQYAMGWYRQAPGKERELVAAITRSGTRTYYADSVKGRFTISRDNAKNTVYLQMNSLKPEDTAVYYCNKALRTYPLFYYWGQGTQVTVSS”, the “polyreactivity (PSR sort gate)” value is recorded as “high polyreactivity”.

Regarding “QVQLVESGGGLDQAGVSLRLSCAASGNIFSWNTMGWYRPAPGKERELVAAITFRGTRTFYADSVKGRFTISRDNAKNNVYLHMNSLKPEDTAVYYSAARYYYSYSLGYDYWGQGTQVTLSS”, the “polyreactivity (PSR sort gate)” value is recorded as “high polyreactivity”.

Take “QVQLVESGGALVQAGGSLRLTCAASGRIYTRYAMGWNRKATGKERELVAVITRSGGSTYYADSVKGRFTISRDNGKNTVYLQMNSLNPEVTAVYDCAAKYYGEMYYWGQGTQVTVSS”: the “polyreactivity (PSR sort gate)” value is “low polyreactivity”.

With “QVQLVESGGGLVQAGGSLRLSCAASGRIFRYYAMGWYRQAPGQERELVAAITWSGGSTYYADSVKGRFTISRDNAKNTVYLQMNSLKPEDTAVYYCNAKSYQPFHGDYWGQGTQVTVSS”, the “polyreactivity (PSR sort gate)” value is “low polyreactivity”.

Turning to “HVQLQESGGGLVQAGGSLRLSCAASGNISNSRNMGWYRQAPGKERELVAAIDRGAITYYADSVKGRFTISRDNAKNTVYLQIYSLKPEDTAVYYCAAEYHDRWDHRYWGQGTQVTVSS”, the “polyreactivity (PSR sort gate)” value is “high polyreactivity”.

Regarding “QVQLVESGGGLVQAGGSLRLSCAASGSTFYLYAMGWYRQAPGKERELVAAISRGGTTYYADSVKGRFTISRDNAKNTVYLKMNSLKPEDTAVYYCAARRPWWYGGGMDYWGQGTQVTVSS”, the “polyreactivity (PSR sort gate)” value was “high polyreactivity”.

With “QVQLVESGGGVVQAGGSLRLSWAASGFIFAVYAMGWYRQSTGKERELVAAITFDGDTTYYADSVKGRFTISRDNANNTVYLQMKILKPDTAVYYCAAEYIKYLWYLHVDYWGQGTQVTVSS”, the “polyreactivity (PSR sort gate)” value is “low polyreactivity”.

In the case of “QVQLVESGGGLVQAGGSLRLSCAASGRTFQSNGMGWYRQAPGKERELVAAITWSSGTTYYADSVKGRFTISRDNAKNTVYLQMNSLKPEDTAVYYCAADWGHWNSLYYSGFGYWGQGTQVTVSS”, the “polyreactivity (PSR sort gate)” value was “low polyreactivity”.

On to “QVQLVESGGGLVQAGGSLRLSCAASGSTFGRNAMGWYRQAPGKERELVAAISNGGSTNYADSVKGRFTISRDNAKNTVYLQMNSLNPEDTAVYYCNRRVPYSFYSRGYYYWGQGTQVTVSS”, for which the “polyreactivity (PSR sort gate)” value is listed as “high polyreactivity”.

On to “QVHLVESGGGLVQAGGSLRLSCAASGSIFEINAMGWYRQAPGKEWELVAAITGSGGSTHYADSVKGRFTISRDNAKNTVYLPMNSLNPEDTAVYYCAAVPRYQYGYWGQGTQVTVSS”, for which the “polyreactivity (PSR sort gate)” value is reported as “low polyreactivity”.

Consider “QVQLVESGGGLVQAGGSLRISCAASGFTFYSNDMGWYRQAPGKERELVAAISYSGGSTYYADSVKGRFTISRDNAKNTVYLQMNSLKPEDTAVYYCAAGGLQQGDYWGQGTQVTVSS”, for which the “polyreactivity (PSR sort gate)” value is recorded as “low polyreactivity”.

On to “QVHLVESGGCLVQAGGSLRLSCAASGFTITYNAMGWYRQAPGKEREFVAAITNNGSTYYADSVKGRFTISRDNAMNTVYFQMNSLKPEDTAVYYCAVDPGYYDEYNYWGQGTHVTVSS”, for which the “polyreactivity (PSR sort gate)” value is “low polyreactivity”.

As for “QVQLVESGGGLVHAGGSLRLSCADSGSTLGSNAMGWYRQAPGKERELVAAITWSGGTTYYADSVKGRFTISRDNAKNTVYLQMNSLKPEDTAVYYCATGQSVIYRYEYWGQGTQVTVSS”, the “polyreactivity (PSR sort gate)” value was “low polyreactivity”.

Regarding “QVQLVESGGGLVQAGGSLRLSCAASGSIFAPYTMGWYRQAPGKERELVAAISSSGTSTYYADSVKGRFTISRDNAKNTVYLQMNSLKPEDTAVYYCAADWYYHYGYWGQGTQVTVSS”, the “polyreactivity (PSR sort gate)” value is recorded as “high polyreactivity”.

As to “QVQLVESGGGLVQAGGSLRLSCAASGNIFSAYAMGWYRQAPGTERELVATITSGGITYYADSVKGRFTISRDNAKNSVYLQKNSLKPEDTAVYYCNADHHGQAEYGYWGHGTQVTVSS”, the “polyreactivity (PSR sort gate)” value is listed as “low polyreactivity”.

On to “QVQLVESGGGLVQAGGSLRLSCAASGRIFRYNAMGWYRQAPGKERELVATISWSGGRTYYADSVKGRFTISRDNAKNTVYLQMNSLKPEDNAVYYCAAYSYRGFGEYDYWGQGTQVTVSS”, for which the “polyreactivity (PSR sort gate)” value is “high polyreactivity”.

As to “QVQLVESGGGLVQAGGTLRLSCAASGRIFVYNAMGWYRQAPGKERELVATITSGGSTYYSDSLKGRFTISRDNAKNTLYFQMNSLKPEDTAVYYCAARRWYVHYFAYGYWGQGTQVTVSS”, the “polyreactivity (PSR sort gate)” value was “low polyreactivity”.

For “QDQLVESVGGLVQAGGSLRLSCAASGNTFRSYVLGWYRQAPGKERELVADISSGDGTNYADSVKGRFTISRDNAKNTVYLQMNSLKREDTAVYYCAKDVYNFRTTHSYFTGYDSWGQGTQVTVSS”, the “polyreactivity (PSR sort gate)” value was “low polyreactivity”.

For “QVQLVESGGGLVQAGGSLRLSCAASGRIIGSNTMGWYRQAPGKEREFVATISSSGGSTYYADSVKGRFTISRDNAKNTVYLQMNSLKPEDTAVYYCNTRRRYPFRPYPEWRNYYWGHGTQVTVSS”, the “polyreactivity (PSR sort gate)” value was “high polyreactivity”.

On to “QVQLVESGGGLVQAGGSLRLSCAASGRIFERNAKGWYRQAPGKERELVAALTYNGGRTYYADSVKGRFTITRDNAKNTVYLQLNSLKPEDTAVYNCNAQSRVTRSSYRGSPRYDYWGQGTQVTVSS”, for which the “polyreactivity (PSR sort gate)” value is reported as “high polyreactivity”.

As for “QVQLVESGGGLVQAGGSLRLSCAASGFTIAYYAMGWYRQAPGKERELVAAITTSGSTYYADSVKGRFTISRDNAQNTVYLQMNSLKPEDTAVYYCAVSIWGWFASGFDYWGQGTQVTVSS”, the “polyreactivity (PSR sort gate)” value was “high polyreactivity”.

For “QVQLVESGGGLVQAGGSLRLSCAASGLIFWYYTMGWYRPAPGKERELVAAITIGGSTYYADSVKGRFTISRDNAKNTVYLQMNSLKPEDTAVYYCNTRRGRSQGGRYEYDYWGQGTQVTVSS”, the “polyreactivity (PSR sort gate)” value is on record as “low polyreactivity”.

Consider “QVQLVESGGGLVQAGGSLRLSCAASGSIFVYYAMGWYRQAPGKERELVAAISSGDGTNYADSVKGRFTISRDNAKNTVYLQMNSLKPEDTAVYYCNADLDSGYGSYDYWGQGTEVTVSS”, for which the “polyreactivity (PSR sort gate)” value is on record as “low polyreactivity”.

On to “QVQLVESGGGLLQAGGSLRLSCAASGSIFPQYAMGWYRPAPGKERELVAAITWSGSRTRYADSVKGRFTISRDNAKNTVYLQMNSLKPEDTAVYYCNAYWGRSGYAGGYWGQGTQVTVSS”, for which the “polyreactivity (PSR sort gate)” value is listed as “high polyreactivity”.

For “QVQLVESGRGLVQAGGSLRLSCAASGRIFSIYAMGWYRQAPGKERELVAAITRGGRTNYADSVKGRFTISRDNAKNTVYLQMNSLKPEDTAVYYCAARRIDGVVKPYDYWGQGTQVTVSS”, the “polyreactivity (PSR sort gate)” value is reported as “low polyreactivity”.

With “QVQLVESGGGLVQAGGSLRLSCAASGRNFPYYAMGWYRQAPGKERELVAAISSSGGGTYYADSVKGRFTISRDNEKNTVYLQMNSLKPEDTAVYYCAAVYKVHSGLYDYWGQGTQVTLSS”, the “polyreactivity (PSR sort gate)” value was “high polyreactivity”.

For the sequence “QVQLVESGGGLVQAVGSLRLSCAASGRTFWANTMGWYRQAPGKERELVAAISKRGGSTYYADSVKGRFTISRDNAKNTVYLQMNSLKPEDTAVYYCNADKSGWYDYWGQGTQVTVSS”, the “polyreactivity (PSR sort gate)” value is reported as “high polyreactivity”.

Regarding “QVQLVESGGGLVQAGGSLRLSCAASGSTIGANAMGWSRQAPGKERELVAAISLSGGTSYADSVKGRFTISRDNAKNTVYLQMNSLKPEDTAVYYCAAPGRGWFDWYAHYYWGQGTQVTVSS”, the “polyreactivity (PSR sort gate)” value is “low polyreactivity”.

Take “QVQLVESGGGLVQAGGSLRLSCAASGFTFGSYAMGWYRPAPGKERELVAGISRGGSTNYADSVKGRFTISRDNAKNTVYLQMNSLKPEDTAVYYCAAYVIGPDQFIYDYWGQGTQVTVSS”: the “polyreactivity (PSR sort gate)” value is reported as “low polyreactivity”.

For “QVQLVESGGGLVQAGGSLRLSCAASGSIFYKYVMGWYRQAPGKERELVAAISRGGGSTYYADSVKGRFTISRDNAKNSVYLQMNSLKPEDTAVYYCNAVGRPRYGHGFDHWGQGTQETVSS”, the “polyreactivity (PSR sort gate)” value was “high polyreactivity”.

Regarding “QVQLVESGGGLVQAGGSLRLSCAASGRIFVPNTMGWYRQAPGKERELVAAINTGGRTYYADSVKGRFTISRDNAKNTVYLQMNSLKPEDTAVYYCAVFSLKLGYIYDYWGQGTQVTVSS”, the “polyreactivity (PSR sort gate)” value is on record as “high polyreactivity”.

With “QVQLVESGGGLLQAGGSLRLSCAASGRIFYGYTMVRYRQAPGKERELVASITIRGSRTYYADSVKGRFTISRDNAKNTVYLQMISQKPEDTAVSYCAADFVPARTVHRYDYWGQGTQVTVSS”, the “polyreactivity (PSR sort gate)” value was “low polyreactivity”.

Turning to “QVQLVESGGGLVQAGGSLRLSCAASGSIFYSNAMGWYRQAPGKERELVATIRSGGTTYYADSVKGRFTISRDNAKNTVYLQMNSLKPEDTAVYYCAKRYGVKYWGQGTQVTVSS”, the “polyreactivity (PSR sort gate)” value is “high polyreactivity”.

For the sequence “QVQLVESGGGLVQAGGSLRLSCAASGLTFRYYAMGWYRQAPGKERELVAAITRGARTNYADSVKGRFTISRDNAKNTVYLQMNSLKPEDTAVYYCNAGFTGLHRYGYWGQGTQVTVSS”, the “polyreactivity (PSR sort gate)” value was “high polyreactivity”.

Regarding “QVQLVESGGGLVQAGGSLRLSCAASGRTIGLNGMGWYRQAPGNERELVAGISWSGGSTNYADSVKGRFTISRDNAKNTVYLQMNSLKPEDTAVNYCPPDFVYYVVNDFGWSYAYEYWGQGTQVTVSS”, the “polyreactivity (PSR sort gate)” value was “low polyreactivity”.

In the case of “QVQLVESGGGLVQAGGSLRLSCAASGRTFQPYAMGWYRQAPGKERELVAAITSIGGSTFYADSVKGRFTISRDNAKNTVYLQMNSLKPEDTAVYYCNARRYWLRYDYWGQGTQVTVSS”, the “polyreactivity (PSR sort gate)” value is “low polyreactivity”.

With “HVQLVESGGGLVQEGGRLRLSCAASGFIFQVNAMGWYRQAPGKERELVAAITGSDGSTSYADSVKGRFTISRDNAKNNVYLQMNSLKPEDTAVYYCAKEESVSTHYYHLIRFDQWGQGTQVTVSS”, the “polyreactivity (PSR sort gate)” value was “low polyreactivity”.

On to “QVQLVESGGGLVQAGGSLRLSCAASGRIFSSYALGWYRQARGKERELVAAISASGGRTYYADSVKGRCTISRDNAKNTVYLQMNSLKPEDTAVYYCNRGYISGSVVERYYWGQGTQVTVSS”, for which the “polyreactivity (PSR sort gate)” value was “high polyreactivity”.

As to “QVQLVESGGGLVQAGGSLRLSCAASGSTFVRYAMGWYRQAPGKEREFVAAISKRGGSTYYADSVKGRFTISRDIAKNTVYLQMNSLKPEDTAVYYCATYLLRDAPGLHQVGYWGQGTQVTVSS”, the “polyreactivity (PSR sort gate)” value is on record as “high polyreactivity”.

Turning to “QVQLVESGGGLVQAGGSLRLSCAASGSIFPQYAMGWYRQAPGKERELVAAISSSGGRTYYADSVKGRFTISRDNAKNTVYLQMNSLKPEDTAVYYCAADGSYAIGGYGYWGQGTQVTVSS”, the “polyreactivity (PSR sort gate)” value was “high polyreactivity”.

The values above are taken from the nanobody polyreactivity screen of Harvey et al. (2022).
